From article PMC4990646, “DELLA proteins are common components of symbiotic rhizobial and mycorrhizal signalling pathways” (Nature Communications, 2016)

B1: HIS-MtDELLA2 (natural protein, M. truncatula, UniProt A0A396GMX6 1-533, looked up)
chain: MKREHKLEHEDMSSGSGKSGVCWEDDGGGMDELLAVVGYKVKSSDMAEVAQKLEQLEQAMMGNNFHDHDESTIAQHLSNDTVHYNPSDISNWLQTMLSNFDPQPNNPSVNSDDNDLNAIPGKAIYAADEFTSRKRVKRNESVTVTTESTTTRPIMVVETQEKGIRLVHSLMACAEAVEQNNLKMAEALVKQIGYLAVSQEGAMRKVATYFAEGLARRIYGVFPQHSVSDSLQIHFYETCPNLKFAHFTANQAILEAFQGKSSVHVIDFSINQGMQWPALMQALALRPGGPPAFRLTGIGPPASDNSDHLQQVGWRLAQFAQTIHVQFEYRGFVANSLADLDASMLELRSPETESVAVNSVFELHKLNARPGALEKVFSVIRQIRPEIVTVVEQEANHNGPAFLDRFTESLHYYSTLFDSLEGSSVEPQDKAMSEVYLGKQICNVVACEGTDRVERHETLNQWRNRFNSAGFSPVHLGSNAFKQASMLLALFAGGDGYKVEENDGCLMLGWHTRPLIATSAWKLAAANSVVVSH
notes: MtDELLA2 of Medicago truncatula; the trigger factor is inferred from the vector pCold-TF; also called HIS-tagged MtDELLA2; source: E. coli, purified (Ni-NTA Agarose); not shown: His tag, N-terminal, kept
B2: HIS-MtDELLA1 (natural protein, M. truncatula, UniProt A0A396IUP1 1-594, looked up)
chain: MKREHQESFGGGVISNNNKTNTNHLNSSKNINFGECSSMQNTNTKQNMWREEKETNGGGMDELLAALGYKVRSSDMADVAQKLEQLEMVMGSAQEEGINHLSSDTVHYDPTDLYSWVQTMLTELNPDSSQINDPLASLGSSSEILNNTFNDDSEYDLSAIPGMAAYPPQEENTAAKRMKTWSEPESEPAVVMSPPPAVENTRPVVLVDTQETGVRLVHTLMACAEAIQQKNLKLAEALVKHISLLASLQTGAMRKVASYFAQALARRIYGNPEETIDSSFSEILHMHFYESSPYLKFAHFTANQAILEAFAGAGRVHVIDFGLKQGMQWPALMQALALRPGGPPTFRLTGIGPPQADNTDALQQVGWKLAQLAQTIGVQFEFRGFVCNSIADLDPNMLEIRPGEAVAVNSVFELHTMLARPGSVEKVLNTVKKINPKIVTIVEQEANHNGPVFVDRFTEALHYYSSLFDSLEGSNSSSNNSNSNSTGLGSPSQDLLMSEIYLGKQICNVVAYEGVDRVERHETLTQWRSRMGSAGFEPVHLGSNAFKQASTLLALFAGGDGYRVEENNGCLMLGWHTRSLIATSAWKLPQNESK
notes: MtDELLA1 of Medicago truncatula; the trigger factor is inferred from the vector pCold-TF; also called HIS-tagged MtDELLA1; source: E. coli, purified (Ni-NTA Agarose); not shown: His tag, N-terminal, kept
B3: MBP-IPD3 (natural protein, M. truncatula, UniProt A7TUE1 1-513, looked up)
chain: MEGRGFSGLYKNSSEELFLKTVMESPIGMPVPTMEMLGFKTVSQSFRTDSEELFKRWLTNDQEGYNSSSMGLNSRLSKRISTEIANMSNQQHIGVASEGRNNDKSCLQNNFLANDVSSDFNFPIRDPVDRELQSSNLFLAKAWFITDQRMTRSRSSELRRRYTEMQNSQAPQGLDSMFMVPEHDTNTIKEELANFNGFDYLSMCELPSQKGTFMSPSNSSSSTFNTHQLVDVDKVSSCVSMLKGTLQRKKLECQVEKEAAEDGLNEIFCIREPLFQSAFNEEESWNQQKLVNVQGDFTDQVNDPGVMQTLEGTTNFVLDGFANQTNQIQGRTASGEPSQSESSAAAPVISSGLDACEGPSNSNQTLGDSSWKQVGESTQNKVRGVREQIMDNLKDDRKRKSLERYGSVTSAVSDGKMDNTKKRRVERSRKMAEAKERNLTPTIPSDMQAILKRCENLEKEVRSLKLNLSFMNRKDSEQTKQIEDLQKQNEDLADEKERLLEEIERILSETGKI
notes: IPD3 (CYCLOPS) of Medicago truncatula; also called MBP-IPD3 fusion protein; source: E. coli, purified (amylose resin), held on the resin; not shown: MBP, N-terminal, kept

Tests used:
Assay in all cases: pull-down; MBP fusion on amylose resin captures purified HIS-tagged MtDELLA; western blot with anti-MBP and anti-HIS
Settings in all cases: both partners purified
[1] = molecular target: T1, MBP-NSP2 (M. truncatula, UniProt Q5NE24 1-508)
T1 construct: NSP2 of Medicago truncatula; source: E. coli, purified (amylose resin), held on the resin; not shown: MBP, N-terminal, kept
T1 sequence (Q5NE24 whole entry, the tested form may be a part): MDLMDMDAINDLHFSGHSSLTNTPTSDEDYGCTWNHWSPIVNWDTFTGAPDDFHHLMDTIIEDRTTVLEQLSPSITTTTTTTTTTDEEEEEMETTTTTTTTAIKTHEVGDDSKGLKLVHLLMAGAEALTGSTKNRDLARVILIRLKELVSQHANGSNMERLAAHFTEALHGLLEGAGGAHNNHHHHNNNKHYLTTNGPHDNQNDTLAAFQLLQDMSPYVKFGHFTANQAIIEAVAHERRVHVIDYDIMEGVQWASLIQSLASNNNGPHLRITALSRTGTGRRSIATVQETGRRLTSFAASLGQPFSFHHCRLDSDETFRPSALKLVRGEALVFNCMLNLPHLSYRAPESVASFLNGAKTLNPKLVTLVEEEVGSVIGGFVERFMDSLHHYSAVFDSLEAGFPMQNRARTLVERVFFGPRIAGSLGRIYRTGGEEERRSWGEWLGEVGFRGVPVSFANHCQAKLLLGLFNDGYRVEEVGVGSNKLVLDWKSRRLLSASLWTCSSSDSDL

[2] = molecular target: B2
[3] = molecular target: B1

Binder | binding result [1] | binding result [2] | binding result [3]
B1 | binds |  | 
B2 | binds |  | 
B3 |  | binds | binds
